Data taken from patent US20200397896A1, “Combination Therapies Comprising Daratumumab, Bortezomib, Thalidomide and Dexamethasone and Their Uses” (Janssen Biotech, Inc., priority 2019, published 2020).

Assays:
[1] = test system: patients with relapsed or refractory multiple myeloma who had received at least 3 prior lines of therapy; assay: SIRIUS open-label trial, DARZALEX monotherapy efficacy; format: in vivo, human
Excerpt: (§1) Treatment continued until unacceptable toxicity or disease progression.

[2] = test system: patients with relapsed or refractory multiple myeloma who had received at least 2 different cytoreductive therapies; assay: GEN501 open-label dose escalation trial, DARZALEX monotherapy efficacy; format: in vivo, human
Excerpt: as §1

[3] = test system: anti-daratumumab antibodies; assay: Immunogenicity in clinical trials; format: in vivo, human
Excerpt: As with all therapeutic proteins, there is the potential for immunogenicity. The detection of antibody formation is highly dependent on the sensitivity and specificity of the assay. Additionally, the observed incidence of antibody (including neutralizing antibody) positivity in an assay may be influenced by several factors including assay methodology, sample handling, timing of sample collection, concomitant medications, and underlying disease. For these reasons, comparison of the incidence of antibodies to daratumumab in the studies described below with the incidence of antibodies in other studies or to other products may be misleading. […] One patient administered DARZALEX as combination therapy, developed transient neutralizing antibodies against daratumumab. However, this assay has limitations in detecting anti-daratumumab antibodies in the presence of high concentrations of daratumumab; therefore, the incidence of antibody development might not have been reliably determined.

[4] = DARZALEX solution pH and storage of diluted solution; format: physicochemical
Excerpt: Prepare the solution for infusion using aseptic technique as follows: • Calculate the dose (mg), total volume (mL) of DARZALEX solution required and the number of DARZALEX vials needed based on patient actual body weight. • Check that the DARZALEX solution is colorless to pale yellow. […] Infusion bags/containers must be made of either polyvinylchloride (PVC), polypropylene (PP), polyethylene (PE) or polyolefin blend (PP+PE). Dilute under appropriate aseptic conditions. Discard any unused portion left in the vial. • Gently invert the bag/container to mix the solution. […] The diluted solution may develop very small, translucent to white proteinaceous particles, as daratumumab is a protein. […] (59° F.-77° F.) and in room light. Diluted solution may be kept at room temperature for a maximum of 15 hours (including infusion time). • If not used immediately, the diluted solution can be stored prior to administration for up to 24 hours at refrigerated conditions 2° C.-8° C. (36° F.-46° F.) and protected from light.
DARZALEX is supplied as a colorless to pale yellow preservative-free solution for intravenous infusion in single-dose vials. The pH is 5.5.

[5] = test system: patients with newly diagnosed multiple myeloma eligible for ASCT; settings: in vivo
Excerpt: Safety evaluations will include adverse event monitoring, physical examinations, electrocardiogram monitoring (ECGs), clinical laboratory parameters (hematology and chemistry), vital sign measurements, and Eastern Cooperative Oncology Group (ECOG) performance status.
In general, adverse events that occurred during the induction/consolidation and maintenance stages will be summarized separately. Treatment-emergent adverse events for each stage will be defined as events that occur or worsen after administration of the first dose of during that stage and through 30 days after the last dose of study drug in that stage and before the next phase of treatment begins.
Melphalan 200 mg/m^2 was pre-ASCT high-dose therapy.

[6] = test system: adult patients with relapsed and refractory multiple myeloma; settings: human, in vivo
Excerpt: (§2) The median duration of exposure was 3.3 months (range: 0.03 to 20.04 months).

[7] = test system: patients with multiple myeloma; settings: human, in vivo
[8] = human, in vivo
[9] = Clinical pharmacokinetics of daratumumab; settings: 1 to 24 mg/kg monotherapy or 1 to 16 mg/kg combination therapy
[10] = test system: adult patients with relapsed and refractory multiple myeloma; assay: DARZALEX monotherapy safety, three open-label clinical trials
Excerpt: as §2

[11] = test system: patients with multiple myeloma; assay: Clinical trials pooled (monotherapy and combination treatments; N=2,066), safety
[12] = monotherapy 16 mg/kg, N = 156, treatment-emergent laboratory abnormality

DARZALEX: IgG1κ human monoclonal antibody against CD38; HC SEQ ID NO: 9, LC SEQ ID NO: 10
median duration of response [1]: 7.4 months
median time to response [1]: 1 month
Overall response rate (ORR) ([1]; N = 106): (29.2%)
Partial response (PR) ([1]; N = 106): (17.0%)
Stringent complete response (sCR) ([1]; N = 106): (2.8%)
Very good partial response (VGPR) ([1]; N = 106): (9.4%)
CR, number of patients ([2]; GEN501): 1
VGPR, number of patients ([2]; GEN501): 3
median duration of response ([2]; GEN501): not estimable
median time to response ([2]; GEN501): 1 month
Overall response rate ([2]; GEN501, 42 patients, 16 mg/kg): 36%
patients positive for anti-daratumumab antibodies ([3]; 111 evaluable monotherapy patients): none
patients positive for anti-daratumumab antibodies ([3]; 1,050 evaluable combination therapy patients): 2
patients who developed transient neutralizing antibodies against daratumumab ([3]; combination therapy): One
storage time of diluted solution at refrigerated conditions ([4]; 2° C.-8° C., protected from light): up to 24 hours
storage time of diluted solution at room temperature (including infusion time) ([4]; 15° C.-25° C., room light, diluted in 0.9% Sodium Chloride): ≤ 15 h
pH of solution ([4]; single-dose vial solution): 5.5
IRRs Grade 3 or 4 at re-initiation following ASCT [5]: < 1%
incidence of IRRs, first infusion following ASCT [5]: 11%
herpes zoster [6]: 3%
Hepatitis B virus reactivation [7]: less than 1%
linear clearance, mean±SD [8]: 171.4 ± 95.3 mL/day
terminal half-life associated with linear clearance, mean±SD [8]: 18 ± 9 days
time to steady state into the every 4-week dosing period [8]: approximately 5 months
trough serum concentration (Cmin) at the end of weekly dosing, mean±SD [8]: 573 ± 332 µg/mL
volume of distribution [8]: 4.7 ± 1.3 L
area under the concentration-time curve (AUC) versus dose [9]: increases more than proportionally
Serious adverse reaction: general physical health deterioration ([10]; monotherapy): 3%
Serious adverse reaction: pneumonia ([10]; monotherapy): 6%
Serious adverse reaction: pyrexia ([10]; monotherapy): 3%
discontinuations due to adverse reactions ([10]; monotherapy): 4%
treatment delay due to adverse reactions ([10]; monotherapy): 15%
Arthralgia, Any Grade ([10]; monotherapy 16 mg/kg, N = 156): 17%
Arthralgia, Grade 3 ([10]; monotherapy 16 mg/kg, N = 156): 0%
Arthralgia, Grade 4 ([10]; monotherapy 16 mg/kg, N = 156): 0%
Back pain, Any Grade ([10]; monotherapy 16 mg/kg, N = 156): 23%
Back pain, Grade 3 ([10]; monotherapy 16 mg/kg, N = 156): 2%
Back pain, Grade 4 ([10]; monotherapy 16 mg/kg, N = 156): 0%
Chills, Any Grade ([10]; monotherapy 16 mg/kg, N = 156): 10%
Chills, Grade 3 ([10]; monotherapy 16 mg/kg, N = 156): 0%
Chills, Grade 4 ([10]; monotherapy 16 mg/kg, N = 156): 0%
Constipation, Any Grade ([10]; monotherapy 16 mg/kg, N = 156): 15%
Constipation, Grade 3 ([10]; monotherapy 16 mg/kg, N = 156): 0%
Constipation, Grade 4 ([10]; monotherapy 16 mg/kg, N = 156): 0%
Cough, Any Grade ([10]; monotherapy 16 mg/kg, N = 156): 21%
Cough, Grade 3 ([10]; monotherapy 16 mg/kg, N = 156): 0%
Cough, Grade 4 ([10]; monotherapy 16 mg/kg, N = 156): 0%
Decreased appetite, Any Grade ([10]; monotherapy 16 mg/kg, N = 156): 15%
Decreased appetite, Grade 3 ([10]; monotherapy 16 mg/kg, N = 156): 1%
Decreased appetite, Grade 4 ([10]; monotherapy 16 mg/kg, N = 156): 0%
Diarrhea, Any Grade ([10]; monotherapy 16 mg/kg, N = 156): 16%
Diarrhea, Grade 3 ([10]; monotherapy 16 mg/kg, N = 156): 1%
Diarrhea, Grade 4 ([10]; monotherapy 16 mg/kg, N = 156): 0%
Dyspnea, Any Grade ([10]; monotherapy 16 mg/kg, N = 156): 15%
Dyspnea, Grade 3 ([10]; monotherapy 16 mg/kg, N = 156): 1%
Dyspnea, Grade 4 ([10]; monotherapy 16 mg/kg, N = 156): 0%
Fatigue, Any Grade ([10]; monotherapy 16 mg/kg, N = 156): 39%
Fatigue, Grade 3 ([10]; monotherapy 16 mg/kg, N = 156): 2%
Fatigue, Grade 4 ([10]; monotherapy 16 mg/kg, N = 156): 0%
Headache, Any Grade ([10]; monotherapy 16 mg/kg, N = 156): 12%
Headache, Grade 3 ([10]; monotherapy 16 mg/kg, N = 156): 1%
Headache, Grade 4 ([10]; monotherapy 16 mg/kg, N = 156): 0%
Hypertension, Any Grade ([10]; monotherapy 16 mg/kg, N = 156): 10%
Hypertension, Grade 3 ([10]; monotherapy 16 mg/kg, N = 156): 5%
Hypertension, Grade 4 ([10]; monotherapy 16 mg/kg, N = 156): 0%
Infusion reaction, Any Grade ([10]; monotherapy 16 mg/kg, N = 156): 48%
Infusion reaction, Grade 3 ([10]; monotherapy 16 mg/kg, N = 156): 3%
Infusion reaction, Grade 4 ([10]; monotherapy 16 mg/kg, N = 156): 0%
Musculoskeletal chest pain, Any Grade ([10]; monotherapy 16 mg/kg, N = 156): 12%
Musculoskeletal chest pain, Grade 3 ([10]; monotherapy 16 mg/kg, N = 156): 1%
Musculoskeletal chest pain, Grade 4 ([10]; monotherapy 16 mg/kg, N = 156): 0%
Nasal congestion, Any Grade ([10]; monotherapy 16 mg/kg, N = 156): 17%
Nasal congestion, Grade 3 ([10]; monotherapy 16 mg/kg, N = 156): 0%
Nasal congestion, Grade 4 ([10]; monotherapy 16 mg/kg, N = 156): 0%
Nasopharyngitis, Any Grade ([10]; monotherapy 16 mg/kg, N = 156): 15%
Nasopharyngitis, Grade 3 ([10]; monotherapy 16 mg/kg, N = 156): 0%
Nasopharyngitis, Grade 4 ([10]; monotherapy 16 mg/kg, N = 156): 0%
Nausea, Any Grade ([10]; monotherapy 16 mg/kg, N = 156): 27%
Nausea, Grade 3 ([10]; monotherapy 16 mg/kg, N = 156): 0%
Nausea, Grade 4 ([10]; monotherapy 16 mg/kg, N = 156): 0%
Pain in extremity, Any Grade ([10]; monotherapy 16 mg/kg, N = 156): 15%
Pain in extremity, Grade 3 ([10]; monotherapy 16 mg/kg, N = 156): 1%
Pain in extremity, Grade 4 ([10]; monotherapy 16 mg/kg, N = 156): 0%
Pneumonia, Any Grade ([10]; monotherapy 16 mg/kg, N = 156): 11%
Pneumonia, Grade 3 ([10]; monotherapy 16 mg/kg, N = 156): 6%
Pneumonia, Grade 4 ([10]; monotherapy 16 mg/kg, N = 156): 0%
Pyrexia, Any Grade ([10]; monotherapy 16 mg/kg, N = 156): 21%
Pyrexia, Grade 3 ([10]; monotherapy 16 mg/kg, N = 156): 1%
Pyrexia, Grade 4 ([10]; monotherapy 16 mg/kg, N = 156): 0%
Vomiting, Any Grade ([10]; monotherapy 16 mg/kg, N = 156): 14%
Vomiting, Grade 3 ([10]; monotherapy 16 mg/kg, N = 156): 0%
Vomiting, Grade 4 ([10]; monotherapy 16 mg/kg, N = 156): 0%
Anemia, Any Grade [10, 12]: 45%
Anemia, Grade 3 [10, 12]: 19%
Anemia, Grade 4 [10, 12]: 0%
Lymphopenia, Any Grade [10, 12]: 72%
Lymphopenia, Grade 3 [10, 12]: 30%
Lymphopenia, Grade 4 [10, 12]: 10%
Neutropenia, Any Grade [10, 12]: 60%
Neutropenia, Grade 3 [10, 12]: 17%
Neutropenia, Grade 4 [10, 12]: 3%
Thrombocytopenia, Any Grade [10, 12]: 48%
Thrombocytopenia, Grade 3 [10, 12]: 10%
Thrombocytopenia, Grade 4 [10, 12]: 8%
Serious adverse reactions, patients ([10]; monotherapy, 156 patients): 33%
Grade 3/4 infusion reaction at Week 2 or subsequent infusions ([11]; N=2,066): Less than 1%
incidence of any grade infusion reactions, Week 2 infusion ([11]; N=2,066): 2%
incidence of any grade infusion reactions, first (16 mg/kg, Week 1) infusion ([11]; N=2,066): 37%
incidence of any grade infusion reactions, subsequent infusions (cumulatively) ([11]; N=2,066): 6%
incidence of infusion modification due to reactions ([11]; N=2,066): 36%
patients who experienced an infusion reaction ([11]; clinical trials, all patients): approximately half
persistence of positive indirect antiglobulin test after the last infusion ([11]; human, in vivo): up to 6 months
